The text below walks through data of the supplement of paper PMC10567573.

The chains are these.
B1: IKZF1 (parent)
chain: RDPFECNMCGYHSQDRYEFSSHIT
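Further: lentivirally expressed fusions sorted by FACS into six bins by GFP to DsRed ratio, PSI derived from sequencing read proportions per bin multiplied by bin number.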

Variants of B1 are the subject of this data set. The data set can be described thus: protein stability index of a GFP-peptide fusion (GPS, HEK-293T) (PSI 1-6); higher = more stable. To be noted: c terminus: a fixed tail appended.
RDPFECNMCGNHSQDRYEFSSHIT [Y11N]: the protein stability index amounted to 2.71.
Under RDPFECNMCGSHSQDRYEFSSHIT [Y11S] stands 2.62; under RDPFECNMCGVHSQDRYEFSSHIT [Y11V], 2.45; under RDPFECNMCGDHSQDRYEFSSHIT [Y11D], 3.51.
For RDPFECNMCGEHSQDRYEFSSHIT [Y11E], the protein stability index turned out to be 3.29.
Under RDPFECNMCGYHSQDRREFSSHIT [Y17R] stands 2.1; under RDPFECNMCGYHSQDRLEFSSHIT [Y17L], 2.22.
Under RDPFECNMCGYHSQDRCEFSSHIT [Y17C] stands 2.38.
In the case of RDPFECNMCGYHSQDRDEFSSHIT [Y17D], the protein stability index came out at 3.1.
For the variant RDPFECNMCGYHSQDRGEFSSHIT [Y17G], the protein stability index worked out at 2.19.
On to RDPFECNMCGYHSQDRWEFSSHIT [Y17W], for which the protein stability index amounted to 2.54.
The same measure for RDPFECNMCGYHSQDRIEFSSHIT [Y17I]: 2.16; for RDPFECNMCGYHVQDRYEFSSHIT [S13V]: 1.91; for RDPFECNMCGYHYQDRYEFSSHIT [S13Y]: 1.92.
On to RDPFECNMCGYHGQDRYEFSSHIT [S13G], for which the protein stability index turned out to be 2.17.
The same measure for RDPFECNMCGYHNQDRYEFSSHIT [S13N]: 2.39; for RDPFECNMCGYHSQDQYEFSSHIT [R16Q]: 2.33.
The same measure for RDPFECNMCGYHSQDEYEFSSHIT [R16E]: 3.15.
The same measure for RDPFQCNMCGYHSQDRYEFSSHIT [E5Q]: 2.06.
For the variant RDPFTCNMCGYHSQDRYEFSSHIT [E5T], the protein stability index stood at 2.38.
The same measure for RDPFSCNMCGYHSQDRYEFSSHIT [E5S]: 1.33.
Under RDPFLCNMCGYHSQDRYEFSSHIT [E5L] stands 2.08; under RDPFGCNMCGYHSQDRYEFSSHIT [E5G], 1.82.
Consider RDPFECNMCMYHSQDRYEFSSHIT [G10M], for which the protein stability index amounted to 1.82.
Regarding RDPFECNMCEYHSQDRYEFSSHIT [G10E], the protein stability index came to 2.79.
Under RDPFECNMCIYHSQDRYEFSSHIT [G10I] stands 1.92; under RDPFECNMCRYHSQDRYEFSSHIT [G10R], 2.13; under RDPFECNMCCYHSQDRYEFSSHIT [G10C], 2.49.
The same measure for RDPFECNMCKYHSQDRYEFSSHIT [G10K]: 2.32; for RDPFECNMCGYHSKDRYEFSSHIT [Q14K]: 1.97.
Take RDPFECNMCGYHSLDRYEFSSHIT [Q14L]: the protein stability index was 1.93.
Regarding RDPFECNMCGYHSPDRYEFSSHIT [Q14P], the protein stability index was 2.3.
On to RDPFECNMCGYHSFDRYEFSSHIT [Q14F], for which the protein stability index was found to be 1.47.
The same measure for RDPFECNMCGYHSGDRYEFSSHIT [Q14G]: 2.38; for RDLFECNMCGYHSQDRYEFSSHIT [P3L]: 1.68; for RDWFECNMCGYHSQDRYEFSSHIT [P3W]: 1.69.
RDNFECNMCGYHSQDRYEFSSHIT [P3N]: the protein stability index is 1.94.
As to RDQFECNMCGYHSQDRYEFSSHIT [P3Q], the protein stability index is 2.18.
Under RDYFECNMCGYHSQDRYEFSSHIT [P3Y] stands 1.5; under RDHFECNMCGYHSQDRYEFSSHIT [P3H], 2.59.
Consider RDMFECNMCGYHSQDRYEFSSHIT [P3M], for which the protein stability index was found to be 1.76.
Under RDPFECNMCGYHSQDRYEFSSHTT [I23T] stands 2.36; under RDPFECNMCGYHSQDRYEFSSHFT [I23F], 2.03; under RDPFECNMCGYHSQDRYEFSSHPT [I23P], 2.35.
The same measure for RDPFECNMCGYHSQDRYEFSSHRT [I23R]: 2.
The same measure for RDPFECNMCGYHSQDRYEFSSHDT [I23D]: 3.32; for RDPFECNMCGYHSQDRYEFSSHIF [T24F]: 1.95; for RDPFECNMCGYHSQDRYEFSSHIP [T24P]: 2.32.
For RDPFECNMCGYHSQDRYEFSSHIH [T24H], the protein stability index was found to be 2.38.
The same measure for RDPFECNMCGYHSQDRYEFSSHIS [T24S]: 1.75.
For RDPFECNMCGYHSQDRYEFSSHIM [T24M], the protein stability index amounted to 1.57.
The same measure for RDPFECNMCGYHSQDRYEFSSHIL [T24L]: 2.19; for RDPFECNMCGYHSQDRYEFSSHIG [T24G]: 1.74.
The same measure for RDPFECNMCGYHSQDRYEVSSHIT [F19V]: 2.08; for RDPFECNMCGYHSQDRYESSSHIT [F19S]: 2.6.
The same measure for RDPFECNMCGYHSQDRYEPSSHIT [F19P]: 3; for RDPFECNMCGYHSQDRYEWSSHIT [F19W]: 1.44.
RDPFECNMCGYHSQDRYELSSHIT [F19L]: the protein stability index came to 1.61.
The same measure for RDPFECNMCGYHSQDRYERSSHIT [F19R]: 2.38.
The same measure for RDPFECNMCGYHSQDRYEQSSHIT [F19Q]: 3.14; for RDPFECWMCGYHSQDRYEFSSHIT [N7W]: 1.93; for RDPFECSMCGYHSQDRYEFSSHIT [N7S]: 1.72.
Turning to RDPFECYMCGYHSQDRYEFSSHIT [N7Y], the protein stability index amounted to 1.83.
Under RDPFECGMCGYHSQDRYEFSSHIT [N7G] stands 2.25; under RDPFECHMCGYHSQDRYEFSSHIT [N7H], 2.25; under RDPFECRMCGYHSQDRYEFSSHIT [N7R], 1.49.
Under RDPFECQMCGYHSQDRYEFSSHIT [N7Q] stands 2.01; under RDPFECNWCGYHSQDRYEFSSHIT [M8W], 2.34.
Under RDPFECNSCGYHSQDRYEFSSHIT [M8S] stands 2.4; under RDPFECNNCGYHSQDRYEFSSHIT [M8N], 2.54.
Consider RDPFECNCCGYHSQDRYEFSSHIT [M8C], for which the protein stability index turned out to be 2.19.
Consider RDPFECNDCGYHSQDRYEFSSHIT [M8D], for which the protein stability index turned out to be 3.11.
Under RDPFECNQCGYHSQDRYEFSSHIT [M8Q] stands 2.21; under RDPFECNECGYHSQDRYEFSSHIT [M8E], 3.08; under RDPFECNGCGYHSQDRYEFSSHIT [M8G], 2.07.
Under RDPFECNMCGYHSQDRYEFPSHIT [S20P] stands 2.51; under RDPFECNMCGYHSQDRYEFCSHIT [S20C], 3.08.
Under RDPFECNMCGYHSQDRYEFESHIT [S20E] stands 2.64.
Consider RDPFECNMCGYHSQDRYEFFSHIT [S20F], for which the protein stability index is 1.59.
The same measure for RDPFECNMCGYHSQDRYEFRSHIT [S20R]: 2.08; for RDPFECNMCGYHSQQRYEFSSHIT [D15Q]: 2.34; for RDPFECNMCGYHSQDRYEFSSEIT [H22E]: 2.55.
Regarding RDPFECNMCGYHSQDRYEFSSDIT [H22D], the protein stability index came to 2.7.
Under RDPFECNMCGYHSQDRYEFSSGIT [H22G] stands 2.17; under RDPFECNMCGYHSQDRYEFSSWIT [H22W], 1.65.
Under RDPFECNMCGYHSQDRYEFSSFIT [H22F] stands 1.97.
Under RDPFECNMCGYHSQDRYEFSSAIT [H22A] stands 2.15; under RDPFECNMCGYHSQDRYEFSSIIT [H22I], 1.83.
In the case of RDPFECNMCGYHSQDRYEFSSQIT [H22Q], the protein stability index turned out to be 2.02.
The same measure for RDPFECNMYGYHSQDRYEFSSHIT [C9Y]: 2.63; for RDPFECNMSGYHSQDRYEFSSHIT [C9S]: 3.42; for RDPFECNMQGYHSQDRYEFSSHIT [C9Q]: 2.57.
For the variant RDPFECNMTGYHSQDRYEFSSHIT [C9T], the protein stability index turned out to be 3.55.
The same measure for RDPFECNMIGYHSQDRYEFSSHIT [C9I]: 3.08; for RDPFECNMPGYHSQDRYEFSSHIT [C9P]: 3.09.
